Data reported in US20220056091A1 (BRIGHT PEAK THERAPEUTICS, published 2022).
Substitutions are numbered along the chain they refer to.

Columns and labels:
Assay in all cases: cell-based or functional assay
[1] = target: T1, IL-18 polypeptide of SEQ ID NO: 1 (native sequence, human IL-18 37-193) (human, UniProt Q14116 37-193)
T1 sequence: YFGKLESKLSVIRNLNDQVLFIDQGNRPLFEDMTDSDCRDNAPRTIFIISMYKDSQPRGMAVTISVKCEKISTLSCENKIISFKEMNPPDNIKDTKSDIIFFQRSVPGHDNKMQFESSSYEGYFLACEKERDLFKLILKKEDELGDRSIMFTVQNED

[2] = target: T2, Modified IL-18 polypeptide of SEQ ID NO: 11 (E06K, K53A, S55A, Y01G) (human, UniProt Q14116 38-193)
T2 chain: T1 sequence with Y1G, E6K, K53A, S55A

[3] = target: T3, Modified IL-18 polypeptide of SEQ ID NO: 14 (E06K, K53A, S55A, M51G) (human, UniProt Q14116 37-193)
T3 chain: T1 sequence with E6K, M51G, K53A, S55A

[4] = target: T4, Modified IL-18 polypeptide of SEQ ID NO: 15 (C38S, C68S, C76S, C127S) (human, UniProt Q14116 37-193)
T4 chain: T1 sequence with C38S, C68S, C76S, C127S

[5] = target: T5, Modified IL-18 polypeptide of SEQ ID NO: 16 (C38S, C68S, C76S, C127S, K70C) (human, UniProt Q14116 37-193)
T5 chain: T1 sequence with C38S, C68S, K70C, C76S, C127S

[6] = target: T6, Modified IL-18 polypeptide of SEQ ID NO: 18 (E06K, K53A, T63A) (human, UniProt Q14116 37-193)
T6 chain: T1 sequence with E6K, K53A, T63A

[7] = target: Modified IL-18 polypeptide of SEQ ID NO: 20 (E06K, T63A) (human, UniProt Q14116 37-193)
[8] = target: Modified IL-18 polypeptide of SEQ ID NO: 21 (K53A, T63A) (human, UniProt Q14116 37-193)
[9] = target: T7, Modified IL-18 polypeptide of SEQ ID NO: 23 (K53A, T63A, C38S, C68S, C76S, C127S, K70C) (human, UniProt Q14116 37-193)
T7 chain: T1 sequence with C38S, K53A, T63A, C68S, K70C, C76S, C127S

[10] = target: T8, Modified IL-18 polypeptide of SEQ ID NO: 71 with a 30 kDa PEG attached at residue C68 (E6K, C38S, K53A, … (human, UniProt Q14116 37-193, 30 kDa PEG on Cys 68 (30 kDa DBCO-polyethylene glycol clicked to a bromoacetamido-PEG5-azide linker on the cysteine)))
T8 chain: T1 sequence with E6K, C38S, K53A

[11] = target: T9, Modified IL-18 polypeptide of SEQ ID NO: 3 (Y01G, F02A, E06K, M51G, K53A, D54A, S55A, T63A) (human, UniProt Q14116 37-193)
T9 chain: T1 sequence with Y1G, F2A, E6K, M51G, K53A, D54A, S55A, T63A

[12] = target: Modified IL-18 polypeptide of SEQ ID NO: 7 (E06K, K53A) (human, UniProt Q14116 37-193)
[13] = target: Modified IL-18 polypeptide of SEQ ID NO: 8 (E06K, S55A) (human, UniProt Q14116 37-193)
[14] = target: Modified IL-18 polypeptide of SEQ ID NO: 9 (K53A, S55A) (human, UniProt Q14116 37-193)
[15] = target: T1, IL-18 polypeptide of SEQ ID NO: 1 …; remark: listed apart in the source

B1: Fc fused human IL-18BP isoform a (IL-18BPa) (Fc fusion, UniProt O95998 31-194, looked up, not shown: a dimerising Fc or GST)
chain: TPVSQTTTAATASVRSTKDPCPSQPPVFPAAKQCPALEVTWPEVEVPLNGTLSLSCVACSRFPNFSILYWLGNGSFIEHLPGRLWEGSTSRERGSTGTQLCKALVLEQLTPALHSTNFSCVLVDPEQVVQRHVVLAQLWAGLRATLPPTQEALPSSHSSPQQQG
IC50 (nM), IL-18BPa inhibition of IFNγ release by NK-92 cells (1 nM IL-18 analyte) [1]: 1.47 nM | IC50 (nM), IL-18BPa inhibition of IFNγ release by NK-92 cells (1 nM IL-18 analyte) [2]: 27.8 nM | IC50 (nM), IL-18BPa inhibition of IFNγ release by NK-92 cells (1 nM IL-18 analyte) [3]: 0.189 nM | IC50 (nM), IL-18BPa inhibition of IFNγ release by NK-92 cells (1 nM IL-18 analyte) [4]: 0.444 nM | IC50 (nM), IL-18BPa inhibition of IFNγ release by NK-92 cells (1 nM IL-18 analyte) [5]: 0.114 nM | IC50 (nM), IL-18BPa inhibition of IFNγ release by NK-92 cells (1 nM IL-18 analyte) [6]: > 1000 nM | IC50 (nM), IL-18BPa inhibition of IFNγ release by NK-92 cells (1 nM IL-18 analyte) [7]: 47.1 nM | IC50 (nM), IL-18BPa inhibition of IFNγ release by NK-92 cells (1 nM IL-18 analyte) [8]: 18.2 nM | IC50 (nM), IL-18BPa inhibition of IFNγ release by NK-92 cells (1 nM IL-18 analyte) [9]: > 1000 nM | IC50 (nM), IL-18BPa inhibition of IFNγ release by NK-92 cells (1 nM IL-18 analyte) [10]: 0.66 nM | IC50 (nM), IL-18BPa inhibition of IFNγ release by NK-92 cells (1 nM IL-18 analyte) [11]: > 55 nM | IC50 (nM), IL-18BPa inhibition of IFNγ release by NK-92 cells (1 nM IL-18 analyte) [12]: > 703 nM | IC50 (nM), IL-18BPa inhibition of IFNγ release by NK-92 cells (1 nM IL-18 analyte) [13]: 15 nM | IC50 (nM), IL-18BPa inhibition of IFNγ release by NK-92 cells (1 nM IL-18 analyte) [14]: 37.3 nM | IC50 (read off the curve); IFNγ production by NK-92 cells stimulated with IL-18 WT [15]: ~1 nM
